Measured values reported in patent publication US8492329B2, “Bioactive peptides and methods of using same” (Compugen Ltd., priority 2007, dated 2013).
No end group written: not given here.

Legend:
[1] = biological target: T1, LGR7 (RXFP1) (Homo sapiens, UniProt Q9HBX9); assay: Competition with Europium labelled H2 Relaxin binding to HEK-293T cells expressing LGR7; parameters: expressed in transfected cells; conditions: LGR7 HEK-293T; 0.01 nM-10 μM; FIG. 9
T1 sequence (Q9HBX9 1-757): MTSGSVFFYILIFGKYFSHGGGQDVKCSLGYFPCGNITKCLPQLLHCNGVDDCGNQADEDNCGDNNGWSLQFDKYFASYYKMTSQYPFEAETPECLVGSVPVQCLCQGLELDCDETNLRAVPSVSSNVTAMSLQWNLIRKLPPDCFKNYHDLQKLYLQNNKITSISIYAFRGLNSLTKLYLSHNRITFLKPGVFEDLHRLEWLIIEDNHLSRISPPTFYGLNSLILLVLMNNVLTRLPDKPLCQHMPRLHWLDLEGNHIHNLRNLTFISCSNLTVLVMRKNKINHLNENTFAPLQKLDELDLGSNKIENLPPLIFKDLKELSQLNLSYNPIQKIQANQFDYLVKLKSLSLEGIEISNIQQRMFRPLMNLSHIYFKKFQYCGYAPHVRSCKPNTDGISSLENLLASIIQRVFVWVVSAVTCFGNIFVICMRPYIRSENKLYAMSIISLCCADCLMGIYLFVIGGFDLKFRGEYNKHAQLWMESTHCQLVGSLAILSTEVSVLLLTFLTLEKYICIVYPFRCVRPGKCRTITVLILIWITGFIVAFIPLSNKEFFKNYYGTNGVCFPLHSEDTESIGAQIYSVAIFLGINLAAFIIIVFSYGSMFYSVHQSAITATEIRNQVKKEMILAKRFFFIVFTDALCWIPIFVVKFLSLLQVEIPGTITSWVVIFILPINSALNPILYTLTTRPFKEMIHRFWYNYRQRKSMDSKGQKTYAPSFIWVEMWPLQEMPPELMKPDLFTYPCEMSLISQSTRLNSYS
Procedure: The ability of Peptides P74C13V (SEQ ID NO: 10) and P59C13V (SEQ ID NO: 6) to compete with the binding of known ligands to LGR7 or LGR8 was tested by testing the ability of P74C13V (SEQ ID NO: 10) and P59C13V (SEQ ID NO: 6) to compete with the binding of Europium labelled H2 Relaxin or INSL3 (manufactured by the H. Florey institute) to stable HEK-293T cell lines expressing LGR7 or LGR8 respectively.
HEK-293T cell lines stabelly expressing LGR7 (RXFP1) were treated with Europium labelled H2 Relaxin (manufactured by the H. Florey institute) The cells were then treated with decimal increasing concentrations (0.01 nM, 0.1 nM, 1 nM, 10 nM, 100 nM, 1 μM, 10 μM) of un-labeled H2 Relaxin (as a positive control) and the tested peptides P59C13V (P59) (SEQ ID NO: 6), P59C13V-Amide (P59-Amide) (SEQ ID NO: 5), P59-S-Amide (P59S) (SEQ ID NO: 1) and P74C13V (P74) (SEQ ID NO: 10). The binding results are shown as a percentage of specific binding of the radioactive test H2 Relaxin (where 100% is the baseline radiation level).

[2] = biological target: LGR8 (RXFP2) (Homo sapiens, UniProt Q8WXD0); assay: ACEA RT-CES cell impedance, LGR8 transfected CHO-K1 cells; assay type: cell-based; parameters: expressed in transfected cells; host or cells: CHO-K1 (transient); conditions: P74C13V 10 uM, P59C13V 10 uM, H2 Relaxin 1 uM, FIG. 14
Description: ACEA RT-CES screen is a noninvasive and label-free assay for GPCRs that can be used with both engineered and nonengineered cell lines. The assay is based on using cell-electrode impedance to measure minute changes in cellular morphology as a result of ligand-dependent GPCR activation and is described in Naichen Yu, et al., Anal. Chem., 78 (1), 35-43, 2006. 10.1021/ac051695v S0003-2700(05)01695-1. The Rho family of small GTPases, which include Rho, Rac, and CDC42, are well-characterized effectors of oncogenes, growth factor and adhesion-mediated signaling pathways and are not classically thought of as being key effectors for GPCRs. Rho family GTPases participate in a number of cellular processes, the main one being regulation and maintenance of specific structures within the actin cytoskeleton framework. […] The current view of the actin cytoskeleton is that of a dynamic and plastic system that is a reflection and manifestation of the intracellular signaling and not simply a static structure designed to maintain cellular architecture. Since GPCRs couple to the actin cytoskeletal network and induce very defined morphological changes, it is possible to harness this information as a functional and biologically relevant readout for GPCRs.
ACEA biosciences; has designed electronic cell sensor arrays embedded in the bottom of the well of microtiter plates that are capable of measuring minute changes in cell morphology. The electronic sensors measure changes in cell-substrate impedance as a result of the disruption of the ionic environment due to the presence of cell and cell morphology dynamics. The main advantages offered by using cell-substrate impedance and cell morphology as a readout are that both exogenously expressed and endogenous receptors can be assayed without the need for engineering the cell with promiscuous G proteins and reporters or labeling the cells with dyes. In addition, since the readout is noninvasive, multiple stimulations with the same ligand or different ligands can be performed to assess events such as desensitization and receptor cross-talk. […]

Sequence of LGR8 (RXFP2) (Q8WXD0 whole entry): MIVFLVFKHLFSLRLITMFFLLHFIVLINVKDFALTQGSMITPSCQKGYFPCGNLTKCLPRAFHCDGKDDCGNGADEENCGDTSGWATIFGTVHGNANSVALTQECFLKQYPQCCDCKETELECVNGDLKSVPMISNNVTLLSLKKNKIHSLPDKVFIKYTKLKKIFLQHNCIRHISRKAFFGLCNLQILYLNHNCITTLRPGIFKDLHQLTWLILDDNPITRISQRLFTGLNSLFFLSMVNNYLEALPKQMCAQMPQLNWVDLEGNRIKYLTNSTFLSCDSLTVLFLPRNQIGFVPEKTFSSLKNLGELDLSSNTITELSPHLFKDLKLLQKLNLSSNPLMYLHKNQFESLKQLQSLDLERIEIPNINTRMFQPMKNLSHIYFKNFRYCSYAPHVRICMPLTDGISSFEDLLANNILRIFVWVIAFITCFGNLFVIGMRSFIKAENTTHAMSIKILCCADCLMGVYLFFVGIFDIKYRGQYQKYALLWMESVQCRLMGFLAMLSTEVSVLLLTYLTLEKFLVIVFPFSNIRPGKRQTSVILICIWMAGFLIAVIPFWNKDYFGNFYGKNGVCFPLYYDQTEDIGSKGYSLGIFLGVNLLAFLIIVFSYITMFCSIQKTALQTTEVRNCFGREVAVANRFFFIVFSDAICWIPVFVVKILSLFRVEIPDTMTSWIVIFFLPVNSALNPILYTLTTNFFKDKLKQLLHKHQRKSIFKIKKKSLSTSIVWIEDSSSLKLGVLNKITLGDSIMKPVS

| Substance | competition for binding of Europium-H2 Relaxin [1] | effect on cell impedance (normalized cell index) [2] |
| --- | --- | --- |
| AYAAFSV-Amide (AYAAFSV-NH2) [Peptide P59-S-Amide] | no competition |  |
| GQKGQVGPPGAAVRRAYAAFSV [Peptide P59C13V] | no competition | no significant effect as compared to BSA |
| GQKGQVGPPGAAVRRAYAAFSV-Amide (GQKGQVGPPGAAVRRAYAAFSV-NH2) [P59C13V-Amide] | no competition |  |
| GQKGQVGPPGAAVRRAYAAFSVGRRAYAAFSV-OH [Peptide P74C13V] | no competition | strong cellular effect |
| H2 Relaxin: H2 Relaxin (ACS), positive control, known ligand of LGR7 (RXFP1) [reference compound] |  | strong cellular effect |
